Data taken from paper PMC10636607.
Like-named read-outs stand apart in the source and are kept apart here.

Assays:
Test in all cases: BLI
influenza HA = target: influenza HA
SARS-CoV-2 spike = target: SARS-CoV-2 spike
[1] = target: biotinylated SARS-CoV-2 fusion peptide
[2] = target: HCV E2 envelope glycoprotein
[3] = target: HC84.26.5D Fab VH G50R (human)
Chain of HC84.26.5D Fab VH G50R (human) (heavy, as listed by the source, chain 1 of 2): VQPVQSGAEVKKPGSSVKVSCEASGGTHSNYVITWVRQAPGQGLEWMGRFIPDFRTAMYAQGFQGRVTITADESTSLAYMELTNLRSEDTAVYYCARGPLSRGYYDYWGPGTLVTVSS
Chain of HC84.26.5D Fab VH G50R (human) (light, as listed by the source, chain 2 of 2): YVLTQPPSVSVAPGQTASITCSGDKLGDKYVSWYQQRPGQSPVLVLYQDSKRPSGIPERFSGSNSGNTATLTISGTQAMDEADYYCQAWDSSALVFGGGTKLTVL

In the case of 8F8 (WT) H:S31R, the ratio to parent (influenza HA) is reported as > 100.

Substance Ab326 (WT) H:V50F has a ratio to parent (SARS-CoV-2 spike; read off a plot) of 9.4.

In the case of COV44-62 Fab (WT) H:R50W, the ratio to parent [1] is reported as > 100.

COVOX-316 (WT) H:W50R was tested, and the ratio to parent (SARS-CoV-2 spike) was > 100.

H1244 (WT) H:S32Y was tested, and the ratio to parent (influenza HA) was > 100.

With HC33.8 (WT) H:S52Y the ratio to parent [2] was > 100.

In the case of HCV1 (WT) H:W52S, the ratio to parent [2] is reported as > 100.

With “HCV (isolate H77) E2 domain protein (domain or fragment)” the fold change in KD against the wild-type Fab [3] was 6 fold.

P008_60 (WT) H:S52R was tested, and the ratio to parent (SARS-CoV-2 spike) was > 100.
